Measurements published in publication PMC6398215.

Biological target: IgG
Experiment: not stated; equilibrium affinity of recombinant CHO FcγRIIIa for IgG, before and after enzymatic desialylation; method and conditions only in the supplement (Fig. S16)

A fold increase in equilibrium affinity against the untreated FcγRIIIa of 2 fold was found for “enzymatically desialylated recombinant FcγRIIIa expressed in CHO cells (from UniProt P08637 17-254) (receptor)” in this work.
